± gives the standard deviation of the averaged measurements.
Key:
[1] = system: VchCAST RNA-guided transposition machinery (E. coli BL21(DE3) host, lacZ target); assay: relative integration efficiency (T-RL orientation) vs wild-type transposon end (log2 (normalized fold change)); transposon end mutated: right end (5 bp flank + 75 bp right end); higher = more efficient transposition
How it was run: (§1)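 Barcode abundances in input plasmids and in genomic integration junctions were obtained by PCR amplification and Illumina sequencing. These came from E. coli BL21(DE3) co-transformed with a T7-driven effector plasmid and a pUC57 donor carrying 1549 left-end or 1849 right-end transposon variants, then plated with 0.1 mM IPTG at 37°C for 18 h. Relative integration efficiency is the output/input fold change, normalised to reference barcodes and log-transformed.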

[2] = system: VchCAST RNA-guided transposition machinery (E. coli BL21(DE3) host, lacZ target); assay: relative integration efficiency (T-LR orientation) vs wild-type transposon end (log2 (normalized fold change)); transposon end mutated: right end (5 bp flank + 75 bp right end); higher = more efficient transposition
How it was run: as §1

Sequence	relative integration efficiency (log2) [1]	relative integration efficiency (log2) [2]
ACATTTGTTGATACAACCATAAAATGATAATTAGAAACCATACGCTGAAATAATCACACCCATAAATTGATATTGCCTCTGATCATAGTCAGACCAACATTGCTACGACCCGTATTCGCACCGACAC	-3.5 ± 0.081	-1.54 ± 0.65
ACATTTGTTGATACACCCATAAATTGATAATTACACCCATAAATTGATAATTATCACACCCATAAATTGATAATTACTCTGATCATAGTCAGACCAACATTGCTACGACCCGTATTCGCACCGACAC	-0.6 ± 0.15	-0.257 ± 0.33
ACATTTGTTGATACACCCATAAATTGATAATTACAACCATAAAGTGATATTTATCACAACCATAAGTTGATATTTTCTCTGATCATAGTCAGACCAACATTGCTACGACCCGTATTCGCACCGACAC	-0.418 ± 0.21	-0.743 ± 0.17
ACATTTGTTGATACAACCATAAAATGATAATTACACCCATAAATTGATAATTATCACACCCATAAATTGATATTGCCTCTGATCAAATTGTGAGCGGATAACAATTTAGTCAGACCAGCACCGACAC	-0.232 ± 0.12	0.00708 ± 0.62
ACATTTGTTGATACAACCAGCCCCGTCGCCGGCACAAACGCCCGGTCGCCGGCGACACAAACGCCCGGTCGCGGTAAGAGGATCATAGTCAGACCAACATTGCTACGACCCGTATTCGCACCGACAC	-7.56 ± 1.3	-6.28 ± 0.75
ACATTTGTTGATACAACCATAAGTTGATATTTTCAACCATAAAGTGATATTTATCACAACCATAAAGTGATATTTACTCTGATCATAGTCAGACCAACATTGCTACGACCCGTATTCGCACCGACAC	0.0778 ± 0.073	-0.067 ± 0.078
ACATTTGTTGATACAACCATAAAATGATAATTACACCCATAAATTGATAATTATCACACGGTAAAATTGATATTGCCTCTGATCATAGTCAGACCAACATTGCTACGACCCGTATTCGCACCGACAC	-0.357 ± 0.043	2.35 ± 0.067
ACATTAGTCGATACAACCATAAAATGATAATTACACCCATAAATTGATAATTATCACACCCAATTTAACTATAACGCTCTGATCATAGTCAGACCAACATTGCTACGACCCGTATTCGCACCGACAC	-7.53 ± 1.2	-5.9 ± 1.5
ACATTGGTCGATACAACCATAAAATGATAATTACACCCATAAATTGATAATTATCACACCCAATTTAACTATAACGCTCTGATCATAGTCAGACCAACATTGCTACGACCCGTATTCGCACCGACAC	-7.79 ± 0.62	-5.26 ± 0.85
TATAATGTTGATACAACCATAAAATGATAATTACACCCATAAATTGATAATTATCACACCCATAAATTGATATTGCCTCTGATCATAGTCAGACCAACATTGCTACGACCCGTATTCGCACCGACAC	-0.277 ± 0.026	-0.134 ± 0.48
ACATTTGTTGATACACCCATAAATTGATATTGCCAACCATATATTGATATCTCTCACAACCATAAGTTGATATTTTCTCTGATCATAGTCAGACCAACATTGCTACGACCCGTATTCGCACCGACAC	0.0747 ± 0.27	1.12 ± 0.16
ACATTTGTTGATACAACCATAAAATGATAATTACCCCCATAAATTGATAATAATGACACCGAATTTAACTATAACGCTCTGATCATAGTCAGACCAACATTGCTACGACCCGTATTCGCACCGACAC	-1.7 ± 0.48	1.94 ± 0.1
ACATTTGTTGATACAACCATATATTGATATCTCCACCCATAAATTGATAATTATCACAACCATAAGTTGATATTTTCTCTGATCATAGTCAGACCAACATTGCTACGACCCGTATTCGCACCGACAC	-0.316 ± 0.1	0.056 ± 0.33
ACATTTGTTGATACAACCATAAAATCATCATTACCCCCATAAATTGATAATTATCACACCCAATTTAACTATAACGCTCTGATCATAGTCAGACCAACATTGCTACGACCCGTATTCGCACCGACAC	-4.04 ± 0.25	-0.419 ± 0.52
ACATTTCTGGATACAACCATAAAATGATAATTACACCCATAAATTCATCATTATCACACCCAATTTAACTATAACGCTCTGATCATAGTCAGACCAACATTGCTACGACCCGTATTCGCACCGACAC	-3.59 ± 0.54	-0.104 ± 0.069
ACATTTGTTGATACAACCATAAAATGATAATTACACCCATAAATTGATAATTATCACACCCATAAATTGATATTGCCTCTCAACCATAAAATGATAATTAGATCATAGTCAGACCAAGCACCGACAC	-0.0518 ± 0.26	0.308 ± 0.018
ACATTTGTTGATACAACAATAAAATGATAATTACACCAATAAATTGATAATTATCACACCAATAAATTGATATTGCCTCTGATCATAGTCAGACCAACATTGCTACGACCCGTATTCGCACCGACAC	-0.726 ± 0.084	-0.547 ± 0.67

Source: the supplement of paper PMC10201428
